Molecular target: Aldob (aldolase B) (UniProt P05062)
Assay: anti-Flag (Aldob) co-IP, Myc-Akt1 blot
Conditions: reference: Myc-Akt1 wild type

Row | Substance | binding against the reference (sites S473) | binding against the reference (sites T308)
1 | Akt1 (from UniProt P31749) Myc-Akt1 S473A | weaker | 
2 | Akt1 (from UniProt P31749) Myc-Akt1 T308A |  | weaker

From publication PMC7744066
